Measurements as given in publication PMC4422728.

Molecular target: β-amyloid (Aβ) protein from brains of rTg9191 mice (human)
Test: SDS-PAGE and Western blot under denaturing conditions; water-soluble fraction of brain extracts (three-step protocol); samples heated at 95°C with SDS and β-mercaptoethanol, 10-20% Tris-Tricine gels, immunoblot for Aβ; mice of 4, 12, 21, 24 and 26 months

β-amyloid (Aβ) protein from brains of rTg9191 mice (peptide)
stoichiometry N: 2
